Assay results reported in paper PMC6083090, “CNBP Homologues Gis2 and Znf9 Interact with a Putative G-Quadruplex-Forming 3′ Untranslated Region, Altering Polysome Association and Stress Tolerance in Cryptococcus neoformans”.

T1: rGis2 (Cryptococcus neoformans (H99), UniProt J9VQ17 1-201)
T1 sequence: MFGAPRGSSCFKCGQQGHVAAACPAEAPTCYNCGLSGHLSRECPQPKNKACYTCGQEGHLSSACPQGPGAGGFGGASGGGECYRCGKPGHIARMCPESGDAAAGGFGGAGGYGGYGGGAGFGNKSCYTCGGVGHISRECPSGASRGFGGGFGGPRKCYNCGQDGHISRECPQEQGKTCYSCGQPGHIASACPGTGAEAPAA

T2: rZnf9 (Cryptococcus neoformans (H99), UniProt J9VQH8 1-184)
T2 sequence: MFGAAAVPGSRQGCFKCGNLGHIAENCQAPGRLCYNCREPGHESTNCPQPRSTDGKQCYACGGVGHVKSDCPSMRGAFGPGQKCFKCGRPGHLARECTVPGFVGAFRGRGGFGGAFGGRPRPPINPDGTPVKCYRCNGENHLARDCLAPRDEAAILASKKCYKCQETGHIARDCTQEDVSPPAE


Tests used:
[1] = target: T1, rGis2; assay: UV-cross-linked EMSA; 5 mM Mg2+; EMSA: 15 mM HEPES pH 7.4, 40 mM KCl, 5 mM MgCl2, 5% glycerol, 0.5 pmol probe in 20 µl, room temperature 20 min, then UV cross-link on ice 10 min; conditions: protein: recombinant; tags: His (pET14b, Ni-NTA); label: 5'-TYE705; putative intramolecular G4
[2] = target: T2, rZnf9; assay: as above; conditions: protein: recombinant; tags: His (pET14b, Ni-NTA); label: 5'-TYE705; putative intramolecular G4
[3] = target: T1, rGis2; assay: competition; 25x and 50x competitor, UV-cross-linked EMSA; EMSA: 15 mM HEPES pH 7.4, 40 mM KCl, 5 mM MgCl2, 5% glycerol, 0.5 pmol probe in 20 µl, room temperature 20 min, then UV cross-link on ice 10 min; conditions: protein: recombinant; tags: His (pET14b, Ni-NTA); label: none; no G4
[4] = target: T2, rZnf9; assay: as above; conditions: protein: recombinant; tags: His (pET14b, Ni-NTA); label: none; no G4

Binder	binding result [1]	binding result [2]	binding result [3]	binding result [4]
UGCAGUGGAGUUGGAGUGGGGAUGGGAUGUUGGGCAGUGGGCCCGUGGAU (structured_RNA) [TYE705-RPL2-3'UTR]	binds	binds		
UGCAGUGGAGUUGGAGUGAAACCAAACCGUUGGGCAGUGGGCCCGUGGAU (ssRNA) [mt competitor (cons mt)]			no binding	no binding
